We go through one protein from ChEMBL document CHEMBL1150988, “-lactam-recognizing enzymes exhibit different structural specificity in acyclic amide and ester substrates: a starting point in -lactamase evolution?” (Bioorg Med Chem Lett, 1994).

Broadly, the Km is the concentration of substrate that gives half-maximal velocity.

Common to all, as to conditions: enterococcus cloacae
Substrate in series [1]: CC(=O)NCCCC[C@H](NC(C)=O)C(=O)NCC(=O)S[C@H](C)C(=O)O
Kind of series: (§1) Km against P99 beta-lactamase.

Substrate in series [2]: C[C@H](NC(=O)Cc1ccccc1)C(=O)O[C@H](C)C(=O)O
The description is as §1.

Substrate in series [3]: C[C@@H](SC(=O)CNC(=O)Cc1ccccc1)C(=O)O
Described as §1.

Substrate in series [4]: CC(=O)NCCCC[C@H](NC(C)=O)C(=O)N[C@@H](C)C(=O)O[C@H](C)C(=O)O
The description is as §1.

Substrate in series [5]: CC(=O)NCCCC[C@H](NC(C)=O)C(=O)NCC(=O)O[C@H](C)C(=O)O
The description is as §1.

Substrate in series [6]: C[C@@H](OC(=O)CNC(=O)Cc1ccccc1)C(=O)O
The description is as §1.

B1: Beta-lactamase (Enterobacter cloacae), P05364 (protein)
chain: MMRKSLCCALLLGISCSALATPVSEKQLAEVVANTITPLMKAQSVPGMAVAVIYQGKPHYYTFGKADIAANKPVTPQTLFELGSISKTFTGVLGGDAIARGEISLDDAVTRYWPQLTGKQWQGIRMLDLATYTAGGLPLQVPDEVTDNASLLRFYQNWQPQWKPGTTRLYANASIGLFGALAVKPSGMPYEQAMTTRVLKPLKLDHTWINVPKAEEAHYAWGYRDGKAVRVSPGMLDAQAYGVKTNVQDMANWVMANMAPENVADASLKQGIALAQSRYWRIGSMYQGLGWEMLNWPVEANTVVEGSDSKVALAPLPVAEVNPPAPPVKASWVHKTGSTGGFGSYVAFIPEKQIGIVMLANTSYPNPARVEAAYHILEALQ
Consider B1, for which the Km in series [1] stood at 6.7 mM; in series [2], 23.4 mM; in series [3], 3.3 mM; in series [4] it was 26.9 mM; in series [5], 36.1 mM; in series [6], 8.1 mM.
